According to the RNAGym collection of RNA variant scans (doi:10.1073/pnas.2313332121):

B1: TPR t1 (parent)
chain: GACCAAUCUGCCCUCAGAGCUCGAGAACAUCUUCGGAUGCAGAGGAGGCAGGCUUCGGUGGCGCGAUAGCGCCAACGUCCUCAACCUCCAAUGCAUCCCACCACAUGAUGAUGCCUGAAGAGCCUUGGUUUUUUG

Variants of: B1
Assay: polymerase ribozyme fitness, log enrichment relative to wild type (log ratio); higher = more active; in vitro selection for triplet polymerase activity
Method in brief: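 To select mutant libraries of each subunit of a heterodimeric triplet polymerase ribozyme, built by PCR and transcribed, each was annealed with a biotinylated primer, partner subunit and triplets, then incubated frozen at −7 °C. Extended constructs were gel-excised, captured on streptavidin beads and amplified by RT-PCR, in one round carried out in triplicate. Illumina sequencing of input and output libraries kept genotypes with ≥10 input reads and ≥1 read per output. Fitness is the base-2 logarithm of genotype enrichment relative to wild-type enrichment, from inverse-variance-weighted replicate averages.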

In order of falling “polymerase ribozyme fitness (log ratio)” value:
1. GACCAAACUGCCCUCAGAGCUCGAGAACAUCUUCGGAUGCAGAGGAGGCAGGCUUCGGUGGCGCGAUAGCGCCAACGUCCUCAACCUCCAAUGCAUCCCACCACAAGAUGAUGCCUGAAGAGCAUUGGUUUUUUG  1.98
2. GACCAACCUGCACUCAGAGCUCGAGAACAUCUUCGGAUGCAGAGGAGGCAGGCUUCGGUGGCGCGAUAGCGCCAAGGUCCUCAACCUCCAAUGCAUCCCACCACAUGAUGAUGCCUGAAGAGCCUUGGUUUUUUG  0.0602
3. GACCAACCUGCCCUCAGAGCUCGAGAACAUCUUCGGUUGCAGAGGAGGCAGGCUUCGGUAGCGCGAUAGCGCCAACGUCCUCAACCUCCAAUGCAUCCCACCACAUGAUGAUGCCUGAAGAGCCUUGGUUUUUUG  -0.133
4. GACCAACAUGCCCUCAGAGCUCGAGAACAUCUUCGGAUGCAGAGGAGGCAGGCUUCGGUGGAGCGAUAGCGCCAACGUCCUCAACCUCCAAUGCAUCCCACCACAUGAUGAUGCCUGAAGAGCCUUGGUUUUUUG  -0.194
5. GACCAAACUGCCCUCAGAGCUCGAGAACAUCUUCGGAUGCAGAGGAGGCAGGCUACGGUGGCGCGAUAGCGCCAACGUCCUCAACCUCCAAUGCAUCCCACCACAUGAUGAUGCCCGAAGAGCCUUGGUUUUUUG  -0.198
6. GACCAACAUGCCCUCAGAGCUCGAGAACAUCUUCGGAUGCAGAGGAGUCAGGCUUCGGUGGCUCGAUAGCGCCAACGUCCUCAACCUCCAAUGCAUCCCACCACAUGAUGAUGCCUGAAUAGUCUUGGUUUUUUG  -0.338
7. GACCAACCUGCCUUAAGAGCUCGAGAACAUCUUCGGAUGCAGAGAAGGCAGGCUUCGGUGGCGCGAUAGCGACAACGUCCUCAACCUCCAAUGCAUCCCACCACAUGAUGAUGCCUGAAGAGCCUUGGUUUUUUG  -0.674
8. GACCAACCUGCCAUCAGAGCUCGAGAACAUCUUCGGAUGCAGAGGAGGCAGGUUUCGGUGGCGCGAUAGCGCCAACGUCCUCAACCUCCAAUGCAUCCCACCACAUGAUGAUGCCUGAAGAGCCUUGGUUUUUUG  -0.742
9. GACCAACCUGCCCUCAGAGCUCGAGAACAUCUUCGGAUGCAGAGGAGGCAGGCUUCGGUGGCGCGAUAGCGCCAACGUCCUCAACCUCCAAUGCAUCCCUCCACAUGAUGAUGCCUGAAGAGCCUUGGUUUUUUG  -0.808
10. GACCAACCUGCACUCAGAGCUCGAGAACAUCUUCGGAUGCAGAGGAGGCAGGCUUCGGUGGCGCGAUAGCGCCAACGUCCUCAACCUACAAUGCAACCCACCAUAUGAUGAUGCCUGAAGAGCCUUGGUUUUUUG  -1.43
11. GACCAACGUGCUCUCAGACCUCGAGAACAUCUUCGGAUGCAGAGGAGGCAGGCUUCGGUGGCGCGAUAGCGCCAACGUCCUCAACCUCCAAUGCAUCCCACCACAUGAUGAUGCAUGAAGAGCCUUGCUUUUUUG  -1.55
12. GACCAAACUGCCCUCAGAGCUCGAGAACAUCUUCGGAUGCAGAGGAGGCAGGCUUCGGUGGCGCGAUAGCGCCAACGUCCUCAACCACGAAUGCAUCCCACCACAUGAUGAUGCCUGAAGAGCCUUGGUUUUUUG  -1.86
13. GACCAACCUGCCCUCAGAGCUCGAGAAUAUCUUCGGAUGCAGAGGAGGUCGGCUUCGGUGGCGCGAUAGCGCCAACGUCCUCAACCUCCAAUGCAUCCCACCACAUGAUGAUGCCUGAAAAACCUUGGUUUUUUG  -2.33
14. GACCAACCUGCCAUCAGAGCUCGAGAAGAUCUUCGGAUGCAGAGGAGGCAGGCUUCGGUGGCGCGAUAUCGCCAACGUCCUCAACCUCCAAUGCAUCCCUCCACAUGAUGAUGCCUGAAGAGCCUUGGUUUUUUG  -2.4
15. GACCAACCUGCCCUCAGAGCUCGAGAACGUCUUCGGAUGCAGAGGAGGCAGGCUUCGGUGGCUCGAUAGCGCCAACGUCCACAACCUCCAAUGCAUCCCACCACAUGAUGAUGCCUGAAGAGCCUUGGUUUCUUG  -3.82
16. GACCAAACUGCCCUCAGAGCUCGAGAACAUCUACGGAUGCAGAGGAGGCAGGCUUCGGUGGCGCGAUAGCGCCAACGUCCUCAACCUCCAAUGCAUCCCACCACAUGAUGAUGCCUGAAGAGCCUUGGUUUUUUG  -3.98
17. GACCAACCUGCCCUCUGAGCUCGAGAACAUCUUAGGAUGCAGAGGAGGGAGGCUUCGGUGGCGCGAUAGCGCCAACGUCCUCAACCUCCAAUGCAUCCCACCACAUGAUGAUGCCUGAAGAGCCUUGGUUUUUUG  -4.01
18. GACCAACCUGCCAUCAGAGCUCGAGAACAUCUUCGGAUGCAGAGGAGGCAGGCUUCGGUGGCGCGAUAGCGCCAACGUCCUCAACCUCCAAUACAUCCCACAUCAUGAUGAUGCCUGAAGCGCCUUGGUUUUUUG  -4.79
19. GACCAACUUGCCCUCAGAGCUCGAGAACAUCUUGGGAUGCAGAGGAGGCAGGCUUCGGUGGCGCGAUAGCGCUAACGUCCUCAACCUCCAAUGCAUCCCACCACAUGAUGAUGCCUGAAGAGCCUUGGUUUUUUG  -5.57
20. GACCAAACUGCCCUCAGAGCUCGAGAACAUCUACGGAUGCAGAGGAGGCAGGCUUCGGUGGCGCGAUAGUGCCAACGUCCUCAACCUCCAAUGCAUCCCACCACAUGAUGAUGCCUGAAGAGCCUUGGUUUUUUG  -5.78
21. GACCAACUUGCCCUCAGAGCUCGAGAACAUCUUGGGAUGCAGAGGAGGCAGGCUUCGGUGGCGCGAUAGCGCCAACGUCCUCAACCUCCAAUGCAUCCCACCACAUGAUGAUGCCUGAAGAGCCUUGGUUUUUUG  -6.08
